A short description of this data set: yeast display, Sf9 membrane polyspecificity reagent, FACS + sequencing; frameworks hold sequencing errors. Put shortly:
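Polyreactivity labels are assigned by the sorting gate from which each nanobody was recovered. The gates were low and high (top ~1%), set on anti-HA fluorescence for expression and streptavidin fluorescence for reagent binding. Before sorting, galactose-induced (36–48 hours) yeast display cells were stained for 1 hour at 4 °C with 10% biotinylated, detergent-solubilized Sf9 membrane reagent.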
Turning to “QVQLVESGGGLVQAGGSLRLSCAASGRIFYFYAMGWYRQAPGKERELVASISSGGITNYADSVKGRFTISRDNAKNTVYLQMNSLKPEDTAVYYCNAGYASGKYSGGYLYGYWGQGTQVTVSS”, the “polyreactivity (PSR sort gate)” value is listed as “low polyreactivity”.

As to “QVQLVESGGGLVQAGGSLRLSCAASGRIFYGNAMGWYRQAPGKERELVAAITRSGGSTYYADSVKGRFTISRDNAKNTVYLQMKSLKPEDTAVYYCAKYRPGIPYYQYGSWGQGNQVTVSS”, the “polyreactivity (PSR sort gate)” value was “high polyreactivity”.

For “QVQLVESGGGLVQAGGSLRLSCAASGRIFYGNVMGWYRQAPGKERELVAAISGGGSTNYADSVKGRFTISRDNAKNTVYLQMNSLKPEDTAVFYCAADSRPWGSSMDYWGQGTKVTVSS”, the “polyreactivity (PSR sort gate)” value is listed as “low polyreactivity”.

Regarding “QVQLVESGGGLVQAGGSLRLSCAASGRIFYGYAMGWYIHAPGKERELVAAITYSGGITYYADSVKGRFTISRDNAKNTVYLQMNSLKPEDTAVYYCATSKSSVTGPDLDYWGQGTQVTVSS”, the “polyreactivity (PSR sort gate)” value was “high polyreactivity”.

Turning to “QVQLVESGGGLVQAGGSLRLSCAASGRIFYGYAMGWYRQAPAKERELVAAISWRGGRTYYADSVKGRFTISRDNAKNTVYLQMNSLKPEDTAVYFCNKDFPPQGQLRNMYYWGQGTLVTVSS”, the “polyreactivity (PSR sort gate)” value is on record as “high polyreactivity”.

As for “QVQLVESGGGLVQAGGSLRLSCAASGRIFYGYAMGWYRQAPGKERELVAAIDWSGGSTYADSVKGRFTISRDNAKNTVYLQMNSLKPEDTAVYYCATDWVTSQQPYYWIYEYWGQGTQVTVSS”, the “polyreactivity (PSR sort gate)” value is “low polyreactivity”.

Take “QVQLVESGGGLVQAGGSLRLSCAASGRIFYGYAMGWYRQAPGKERELVAAIRWYVGNTYYADSVKGRFTISRDNAKNTVYLQMNSLKPEDTAVYYCNARTEYASSRYYYWGQGTQVTVSS”: the “polyreactivity (PSR sort gate)” value is given as “high polyreactivity”.

Take “QVQLVESGGGLVQAGGSLRLSCAASGRIFYGYAMGWYRQAPGKERELVAAITRGVSTYYADSVKGRFTISRDNAKNTVYLQMNSLKPEDTAVYYCAKDRRVRMDSWGQGTQVTVSS”: the “polyreactivity (PSR sort gate)” value is reported as “low polyreactivity”.

For “QVQLVESGGGLVQAGGSLRLSCAASGRIFYGYAMGWYRQAPGKERELVAGISYRGARTYYADSVKARFTISRDNAKNTVYLQMNSLKPEDTAVYNCNAVPYYPFAFGALDYSGQGTQVTVSS”, the “polyreactivity (PSR sort gate)” value is reported as “high polyreactivity”.

On to “QVQLVESGGGLVQAGGSLRLSCAASGRIFYGYAMGWYRQAPGKERELVASISRRGSSTYYADSVKGRFTISRDNAKNTVYLQMNSLKPEDTAVYYCAAGYYPFNYWGQGTQLTVSS”, for which the “polyreactivity (PSR sort gate)” value was “high polyreactivity”.

As to “QVQLVESGGGLVQAGGSLRLSCAASGRIFYGYAMGWYRQAPGNERELVAAISSSGGSTYYADSVKGRFTISRDNAKYTVYLQMNSLKPDDTAVYYCNAQLYRPGYWYDYWGQGTQVTVSS”, the “polyreactivity (PSR sort gate)” value was “high polyreactivity”.

For the sequence “QVQLVESGGGLVQAGGSLRLSCAASGRIFYGYTMGWYIQAPGKERELVAAISKHAGSTYYSDSVKGRFTISRDNAKNTVYLQMNSLKPEDTAVYYCAKDSSVQAYYGYWYTSTDDYWGQGTQVTVSS”, the “polyreactivity (PSR sort gate)” value is “low polyreactivity”.

Take “QVQLVESGGGLVQAGGSLRLSCAASGRIFYGYTMGWYRQAPGKERELVAAITQRGGNTHYADSVKGRFTISRDNAKNTVYLQMNSLKPEDTAVYYCAAKYYPYVRRVQYYYWGQGTQVTVSS”: the “polyreactivity (PSR sort gate)” value is “high polyreactivity”.

As for “QVQLVESGGGLVQAGGSLRLSCAASGRIFYHNAMGWYRQAPGKERELVAAITWSGGSTYYADSVKGRFTISRDNAKNTVYLQMNSLKTDDTAVYYCNALSNRYYSKLGSWGQGTQVTVSS”, the “polyreactivity (PSR sort gate)” value is recorded as “high polyreactivity”.

In the case of “QVQLVESGGGLVQAGGSLRLSCAASGRIFYHNTMGWYRQAPGKERELVAAIRSGSSSYYADSVKGRFTISRDNAKNTVYLQMNSLKPEDTAVYYCNARPWYSWGVDYDYWGQGTQVTVSS”, the “polyreactivity (PSR sort gate)” value is “low polyreactivity”.

Take “QVQLVESGGGLVQAGGSLRLSCAASGRIFYHYAMGWYRQAPGKERELVATIRRRGSSTYYADSVKGRFTISRDNAKNTVYLQMNSLKPEDTAVYYCAAGPTTNRYNYWGQGTQVTVSS”: the “polyreactivity (PSR sort gate)” value is “high polyreactivity”.

In the case of “QVQLVESGGGLVQAGGSLRLSCAASGRIFYINAMGWYRQAPGKERELVASITGSGGRTYYADSVKGRFTISRDNAKNTVYLQMNSLKPEDTAVYYCNADLYVGYLYYLYDYWGQGTQVTVSS”, the “polyreactivity (PSR sort gate)” value is reported as “low polyreactivity”.

For the sequence “QVQLVESGGGLVQAGGSLRLSCAASGRIFYINVMGWYRQAPGKERELVAGITWIGGSTYADSVKGRFTISRDNAKNTVYLQMNSLKPEVTAVYYCNADPDFTVYRYLWPEGVEYWGQGTQVTVSS”, the “polyreactivity (PSR sort gate)” value was “low polyreactivity”.

Consider “QVQLVESGGGLVQAGGSLRLSCAASGRIFYIYAMGWYRQAPGKERELVATISVSGGRTYYADSVKGRFTISRDNAKNTVYLQMNSLKPEDTAVYYCAKECRFNIHKWYDYWGQGTQVTVSS”, for which the “polyreactivity (PSR sort gate)” value is recorded as “low polyreactivity”.

Take “QVQLVESGGGLVQAGGSLRLSCAASGRIFYIYAMGWYRQEPGKERELVAAISRRAASTYYADSVKGRFTISRDNAKNTVYLQMNSLKPEDTAVYYCAADYYDRKVEYYYWGQGTQVTVSS”: the “polyreactivity (PSR sort gate)” value is reported as “high polyreactivity”.

As for “QVQLVESGGGLVQAGGSLRLSCAASGRIFYIYTMGWYRQAPGKEREFVAGINWNGGSTYYADSVKGRFTISRDNAKNTVYLQMNSLKPEDTAVYYCNADQYWDRYYYWGQGTQVTVSS”, the “polyreactivity (PSR sort gate)” value is listed as “low polyreactivity”.

Regarding “QVQLVESGGGLVQAGGSLRLSCAASGRIFYKNAMGWYRPEPGKEREVVAAISSSGTRTYYADSVKGRFTISRENAKNTVSLQMNSLKPEDTAVYYCAAALGWYSAFGYWGQGTQVTVSS”, the “polyreactivity (PSR sort gate)” value is given as “high polyreactivity”.

“QVQLVESGGGLVQAGGSLRLSCAASGRIFYKNDLGWYRQAPGTETELVATLTYSDGTTYYADSVKGRFTISRDNAKNTVYLQMNSLKPEDTAVYYCAAQTDSVESDYWGQGTQVTVSS”: the “polyreactivity (PSR sort gate)” value is listed as “low polyreactivity”.

For “QVQLVESGGGLVQAGGSLRLSCAASGRIFYKYAMGWYRQAPGKERELVAGITGSGGSTYYADSVKGRFTISRDNAKNTVYLQMNSLKPEDTAVYYCAKRVSYDYWGQGTQVTVSS”, the “polyreactivity (PSR sort gate)” value is recorded as “low polyreactivity”.

In the case of “QVQLVESGGGLVQAGGSLRLSCAASGRIFYKYVMGGYRQAPGKARVLVAAINRSGGTTYYADSVKGRFTISRDNAKKTVYLQMNSQKPEDTAVYYCNATLPAYWPYYYYQGGDDYWGQGTQVTVSS”, the “polyreactivity (PSR sort gate)” value was “low polyreactivity”.

Take “QVQLVESGGGLVQAGGSLRLSCAASGRIFYKYVRGCYRQAPGKDRELVATITSGGSTYYADSVKGRFTISRDNAKNTVYLQMNSLNPEDTAVYYCAARKYYSRAYDYWGQGTQVTVSS”: the “polyreactivity (PSR sort gate)” value is “high polyreactivity”.

Turning to “QVQLVESGGGLVQAGGSLRLSCAASGRIFYLNAMGWYRQAPGKERELVATISSGGSTNYADSVKGRFTISRDNAKNTVYLQMNSLKPEDTAVYYCARKSLRYSYVYRDYWGQGTQVTVSS”, the “polyreactivity (PSR sort gate)” value is “low polyreactivity”.

Consider “QVQLVESGGGLVQAGGSLRLSCAASGRIFYLYAMGWYRQAPGKERELVAAISVSGARTYYADSVKGRFTISRDNAKNTVYLHMNSLKPEDTAVYYCATVGPYRSRRAGDYWGQGTQVTVSS”, for which the “polyreactivity (PSR sort gate)” value is recorded as “high polyreactivity”.

For the sequence “QVQLVESGGGLVQAGGSLRLSCAASGRIFYLYAMGWYRQAPGKERELVAAISWGGGSTYYADSVKGRFTISRDNAKNTVYLQMNSLKPEDTAVYYCAAAVTTWVEYDYWGQGTQVTVSS”, the “polyreactivity (PSR sort gate)” value was “low polyreactivity”.

As to “QVQLVESGGGLVQAGGSLRLSCAASGRIFYNNVMGWYRQAPGKERELVAAISGNGGSTYYADSVKGRFTISRDNAKNTVYLQMNSLKPEDTAVYYCAKGSHSYLISTGDYWGQGTQVTVSS”, the “polyreactivity (PSR sort gate)” value is listed as “low polyreactivity”.

For the sequence “QVQLVESGGGLVQAGGSLRLSCAASGRIFYNYAMGWYRQAPGKERELVAAISGSGGSTYYADSVKGRFTISRDNAKNTVYLQMNSLKPEDTAVYYCAADSYVSPEVRFDYWGQGTQVTVSS”, the “polyreactivity (PSR sort gate)” value is listed as “low polyreactivity”.

Turning to “QVQLVESGGGLVQAGGSLRLSCAASGRIFYPNAMGWYRQAPGKERELVAAISWSGGSTYYADSVKGRFTISRDNAKNTVYLQMNSLKPEDTAVYFCAAKPYQVSSYDFSLRDYWGQGTQVTVSS”, the “polyreactivity (PSR sort gate)” value is “low polyreactivity”.

Take “QVQLVESGGGLVQAGGSLRLSCAASGRIFYPNAMGWYRQAPGKERELVAAISWSGGSTYYADSVKGRFTISRDNAKNTVYLQMNSLKPEDTAVYYCNAEYRYYQKTPGRYTNVEYDYWGQGTQVTVSS”: the “polyreactivity (PSR sort gate)” value is listed as “low polyreactivity”.

“QVQLVESGGGLVQAGGSLRLSCAASGRIFYPYAMGWYRQAPGKERELVAAISLSGGSTLYADSVKGRFTISRDNAKNTVYLQMNSLKPEDTAVYYCAADQRTRYQTRQYYYWGQGTQVTVSS”: the “polyreactivity (PSR sort gate)” value is “low polyreactivity”.

In the case of “QVQLVESGGGLVQAGGSLRLSCAASGRIFYPYAMGWYRQAPGKERELVAAITSGGRTNYADSVKGRFTISRDNAKNTVYLQMNSLKPEDTAVYYCAATRFRHGKRMDYWGQGTQVTVSS”, the “polyreactivity (PSR sort gate)” value is “high polyreactivity”.

Turning to “QVQLVESGGGLVQAGGSLRLSCAASGRIFYPYAMGWYRQAPGKERELVAAITTSSARTYYADSVKGRFTISRDNAKNTVYLQMNSLKPEDTAVYYCAVKRGYYTTYRGYGYWGQGTQVTVSS”, the “polyreactivity (PSR sort gate)” value is “high polyreactivity”.

Regarding “QVQLVESGGGLVQAGGSLRLSCAASGRIFYPYAMGWYRQAPGKERELVAAITYSGGSTYYADSVKGRFTISRDNAKNTVYLQMNSLKPEDTAVYYCNAVQRGSFYLGKFGYWGQGTQVTVSS”, the “polyreactivity (PSR sort gate)” value is recorded as “high polyreactivity”.

As for “QVQLVESGGGLVQAGGSLRLSCAASGRIFYQNAMGWYRQAPGKERELVAGITRGGSTYYADSVKGRFTISRDNAKNTVYLQMNSLKPEETAVYYCAVAFWRTKWYDYWGQGTQVTVSS”, the “polyreactivity (PSR sort gate)” value is “low polyreactivity”.

“QVQLVESGGGLVQAGGSLRLSCAASGRIFYQYAMGWYRQAPGKERELVAAISWNGGRTYYADSVKGRFTISRDNAKNTVYLQMNSPKPEDTAVYYCNAVASKSFYYRDNYWGQGTQVTVSS”: the “polyreactivity (PSR sort gate)” value is recorded as “high polyreactivity”.

For the sequence “QVQLVESGGGLVQAGGSLRLSCAASGRIFYRNAMGWYRQAPGKDRELVAGISKRGGSTYYADSVKGRFTISRDNAKNTVYLQMTSLKPEDTAVYYCNKVSFLNSHKSRGNRYYYWGQGTQVTVSS”, the “polyreactivity (PSR sort gate)” value is “high polyreactivity”.

“QVQLVESGGGLVQAGGSLRLSCAASGRIFYRNAMGWYRQAPGKEREFVAAITFRSGGTYYADSVKGRFTISRDNAKNTVYLQMNSLKPEDTAVYYCATRYLGASRYGYWGQGTQVTVSS”: the “polyreactivity (PSR sort gate)” value was “high polyreactivity”.
